Laboratory results: US20030087827A1 (BOARD OF SUPERVISORS OF LOUISIANA STATE UNIVERSITY AND …, published 2003)
Non-standard residues stand in square brackets, D forms with d. No end group written: not given here.

T1: proprotein convertase PC2
T1 sequence (P16519 110-638, species assumed, looked up): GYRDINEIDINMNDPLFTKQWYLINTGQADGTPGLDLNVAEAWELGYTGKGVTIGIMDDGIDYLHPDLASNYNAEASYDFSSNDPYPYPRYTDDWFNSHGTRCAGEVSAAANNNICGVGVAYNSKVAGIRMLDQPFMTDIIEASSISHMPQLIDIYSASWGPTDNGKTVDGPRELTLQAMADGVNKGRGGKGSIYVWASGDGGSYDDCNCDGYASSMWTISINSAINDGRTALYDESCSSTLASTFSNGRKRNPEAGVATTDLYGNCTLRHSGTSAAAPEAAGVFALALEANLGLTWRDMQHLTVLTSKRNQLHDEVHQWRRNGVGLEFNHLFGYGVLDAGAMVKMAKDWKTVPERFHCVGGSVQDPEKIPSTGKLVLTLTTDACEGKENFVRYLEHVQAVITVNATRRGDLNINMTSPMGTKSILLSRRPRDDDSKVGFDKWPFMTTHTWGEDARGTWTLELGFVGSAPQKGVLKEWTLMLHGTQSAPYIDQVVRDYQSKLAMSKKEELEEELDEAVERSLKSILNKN

T2: proprotein convertase PACE4
T2 construct: Partially purified preparation
T2 sequence (P29122 150-969, species assumed, looked up): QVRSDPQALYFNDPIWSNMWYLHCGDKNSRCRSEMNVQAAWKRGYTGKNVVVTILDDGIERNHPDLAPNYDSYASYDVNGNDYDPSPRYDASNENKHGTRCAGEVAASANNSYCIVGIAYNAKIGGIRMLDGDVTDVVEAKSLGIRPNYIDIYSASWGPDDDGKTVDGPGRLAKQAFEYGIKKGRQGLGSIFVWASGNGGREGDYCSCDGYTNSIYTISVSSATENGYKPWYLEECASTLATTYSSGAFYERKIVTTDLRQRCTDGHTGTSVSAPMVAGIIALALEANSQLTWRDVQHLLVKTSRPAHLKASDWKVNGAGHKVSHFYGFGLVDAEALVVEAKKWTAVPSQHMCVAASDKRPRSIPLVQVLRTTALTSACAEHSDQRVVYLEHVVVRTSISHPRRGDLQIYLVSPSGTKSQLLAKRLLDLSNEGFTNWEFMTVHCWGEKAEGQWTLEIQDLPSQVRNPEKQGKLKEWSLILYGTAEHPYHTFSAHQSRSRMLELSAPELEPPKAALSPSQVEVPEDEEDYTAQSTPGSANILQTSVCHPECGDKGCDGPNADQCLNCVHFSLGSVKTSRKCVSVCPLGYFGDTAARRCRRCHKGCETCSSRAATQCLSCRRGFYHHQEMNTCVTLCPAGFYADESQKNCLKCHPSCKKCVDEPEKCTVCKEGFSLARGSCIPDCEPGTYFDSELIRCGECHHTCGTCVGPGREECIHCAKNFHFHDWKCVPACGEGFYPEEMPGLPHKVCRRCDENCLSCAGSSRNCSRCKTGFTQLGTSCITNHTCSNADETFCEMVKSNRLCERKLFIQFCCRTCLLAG

B1: Tetra-L-arginine (peptide)
peptide: H-RRRR-OH
notes: no terminal modifications; also called tetramer
B2: Penta-L-arginine (peptide)
peptide: RRRRR
notes: no terminal modifications; also called pentamer; pentameric polyarginine
B3: LLRVKR (peptide)
peptide: H-LLRVKR-OH
notes: L-hexapeptide without terminal groups; also called unmodified LLRVKR
B4: Ac-LLRVKR-NH2 (peptide)
peptide: Ac-LLRVKR-NH2
notes: L-hexapeptide; also called acetylated and amidated LLRVKR
B5: Hexa-D-arginine (peptide)
peptide: [dR][dR][dR][dR][dR][dR]
notes: also called D6R; D-hexa-arginine
B6: Ac-RRKRRR-NH2 (peptide)
peptide: Ac-RRKRRR-NH2
B7: Ac-KHKRRR-NH2 (peptide)
peptide: Ac-KHKRRR-NH2
notes: L-hexapeptide
B8: Ac-MHKRRR-NH2 (peptide)
peptide: Ac-MHKRRR-NH2
notes: L-hexapeptide
B9: Ac-HRKRRR-NH2 (peptide)
peptide: Ac-HRKRRR-NH2
notes: L-hexapeptide
B10: Ac-KRKRRR-NH2 (peptide)
peptide: Ac-KRKRRR-NH2
notes: L-hexapeptide
B11: Ac-MRKRRR-NH2 (peptide)
peptide: Ac-MRKRRR-NH2
notes: L-hexapeptide
B12: Ac-HHKRRR-NH2 (peptide)
peptide: Ac-HHKRRR-NH2
notes: L-hexapeptide
B13: Ac-RHKRRR-NH2 (peptide)
peptide: Ac-RHKRRR-NH2
notes: L-hexapeptide
B14: Ac-LLRVKR (peptide)
peptide: Ac-LLRVKR-OH
notes: L-hexapeptide, free C-terminus
B15: LLRVKR-NH2 (peptide)
peptide: H-LLRVKR-NH2
notes: L-hexapeptide, free N-terminus
B16: Hepta-L-arginine (peptide)
peptide: RRRRRRR
notes: no terminal modifications; also called heptamer
B17: Octa-L-arginine (peptide)
peptide: RRRRRRRR
notes: no terminal modifications; also called octamer
B18: Hexa-L-arginine (peptide)
peptide: H-RRRRRR-OH
notes: no terminal modifications; also called hexamer
B19: Nona-L-arginine (peptide)
peptide: RRRRRRRRR
notes: no terminal modifications; also called nonamer

The binders below were run against T3, recombinant truncated mouse furin (mouse, UniProt P23188 108-714, N-glycosylated at two of three potential sites) (assay: enzyme inhibition, pERTKR-MCA hydrolysis, ratio of Ki).
T3 construct: extracellular domain; Purified by ion exchange and gel permeation; also called recombinant furin; recombinant mouse furin
T3 sequence (P23188 108-714): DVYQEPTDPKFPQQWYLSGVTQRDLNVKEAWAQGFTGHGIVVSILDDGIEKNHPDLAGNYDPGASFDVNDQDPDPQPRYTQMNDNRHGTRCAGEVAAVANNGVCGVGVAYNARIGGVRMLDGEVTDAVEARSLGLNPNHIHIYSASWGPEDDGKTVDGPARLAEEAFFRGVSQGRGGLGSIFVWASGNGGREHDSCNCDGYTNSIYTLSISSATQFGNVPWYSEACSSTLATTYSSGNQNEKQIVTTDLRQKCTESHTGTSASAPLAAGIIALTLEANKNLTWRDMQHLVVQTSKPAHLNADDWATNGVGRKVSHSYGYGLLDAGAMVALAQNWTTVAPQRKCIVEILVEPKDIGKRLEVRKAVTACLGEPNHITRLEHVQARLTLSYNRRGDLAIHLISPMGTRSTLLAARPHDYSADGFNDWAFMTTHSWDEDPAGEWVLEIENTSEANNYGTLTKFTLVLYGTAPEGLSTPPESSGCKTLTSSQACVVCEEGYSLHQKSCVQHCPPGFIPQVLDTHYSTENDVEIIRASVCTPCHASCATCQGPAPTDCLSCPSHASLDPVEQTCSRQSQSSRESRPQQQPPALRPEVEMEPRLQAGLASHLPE
B1 was tested, and the “fold increase in Ki against the pentamer (penta-L-arginine)” value was about 5 fold. For B2, the “fold increase in Ki against the hexamer (hexa-L-arginine)” value was about 10 fold. With B3 the “fold increase in inhibitory potency against the amidated and acetylated peptide Ac-LLRVKR-NH2” value was 8 fold.

These binders were tested against T1, proprotein convertase PC2 in the same assay as above.
With B4 the “fold smaller Ki than the unmodified peptide LLRVKR” value was about 4 fold.

The binders below were run against T4, proprotein convertase PC1 in the same assay as above.
T4 construct: also called PC3
T4 sequence (P63239 111-753): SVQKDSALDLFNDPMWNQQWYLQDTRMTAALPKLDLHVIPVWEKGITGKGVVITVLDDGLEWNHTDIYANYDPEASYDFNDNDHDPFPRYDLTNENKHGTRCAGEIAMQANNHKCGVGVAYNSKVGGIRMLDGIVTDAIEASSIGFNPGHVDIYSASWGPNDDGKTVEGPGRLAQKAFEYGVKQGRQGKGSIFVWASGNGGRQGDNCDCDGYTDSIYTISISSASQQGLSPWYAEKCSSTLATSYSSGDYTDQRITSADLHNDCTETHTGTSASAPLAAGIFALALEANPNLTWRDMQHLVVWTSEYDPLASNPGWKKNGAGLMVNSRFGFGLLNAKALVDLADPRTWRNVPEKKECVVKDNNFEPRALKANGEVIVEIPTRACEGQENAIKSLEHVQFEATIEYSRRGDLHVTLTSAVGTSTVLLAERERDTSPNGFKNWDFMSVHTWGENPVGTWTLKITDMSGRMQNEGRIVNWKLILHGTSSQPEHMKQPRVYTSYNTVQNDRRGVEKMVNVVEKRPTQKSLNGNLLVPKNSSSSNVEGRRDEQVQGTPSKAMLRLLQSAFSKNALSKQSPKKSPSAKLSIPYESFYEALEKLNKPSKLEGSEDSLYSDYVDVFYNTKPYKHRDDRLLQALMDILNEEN
B5 was tested, and the “fold increase in Ki against hexa-L-arginine” value was 3 fold.

The binders below were run against T2, proprotein convertase PACE4 in the same assay as above.
In the case of B2, the “ratio of Ki to that of the hexamer (SEQ ID NO 14)” value is reported as about 2 fold.

These binders were tested against T3, recombinant truncated mouse furin (assay: enzyme inhibition, pERTKR-MCA hydrolysis (fluorescence), competitive Ki).
Excerpt: (§1) Each value represents the mean ± S.D. determined from three independent experiments.
In the case of B6, the Ki is reported as 1.3 µM. B7 was tested, and the Ki was 5.2 µM. In the case of B8, the Ki is reported as 10.3 µM. Work on B9 yielded a Ki of 2.1 µM. For B10, the Ki was 1.6 µM. B11 showed a Ki of 2.3 µM. B12 gave a Ki of 13.2 µM. B13 showed a Ki of 3.4 µM.

These binders were tested against T1, proprotein convertase PC2 in the same assay as above.
Excerpt: as §1
B6 showed a Ki of 461 µM. For B7, the Ki was 280 µM. With B8 the Ki was 216 µM. In the case of B9, the Ki is reported as 309 µM. For B10, the Ki was 391 µM. B12 was tested, and the Ki was 235 µM. In the case of B13, the Ki is reported as 152 µM.

Molecular target: T3, recombinant truncated mouse furin
Test: as above
Remark: another data set of the same source
Excerpt: (§2) The Effect of N-Terminal Acetyl and C-Terminal Amide Groups on Inhibition. We also examined the effect of the terminal acetyl and amide modifications on inhibitory potency.
as §1
In the case of B4, the Ki is reported as 3.4 µM. Binder B3 has a Ki of 0.42 µM. B14 gave a Ki of 3.5 µM. B15 showed a Ki of 0.8 µM.

Molecular target: T1, proprotein convertase PC2
Test: as above
Remark: another data set of the same source
Excerpt: as §2, §1
B4 showed a Ki of 1 µM. Binder B3 has a Ki of 3.7 µM. With B14 the Ki was 1.3 µM. For B15, the Ki was 2.3 µM.

Molecular target: T3, recombinant truncated mouse furin
Test: as above
Remark: another data set of the same source
Excerpt: (§3) Inhibition of Furin, PACE4, PC1 and PC2 by Different L-Polyarginine Peptides.
as §1
With B1 the Ki was 6.4 µM. For B16, the Ki was 0.068 µM. In the case of B2, the Ki is reported as 0.99 µM. For B17, the Ki was 0.061 µM. Work on B18 yielded a Ki of 0.114 µM. For B5, the Ki was 0.106 µM. With B19 the Ki was 0.042 µM.

Each binder was assayed against T4, proprotein convertase PC1 in the same assay as above.
Excerpt: as §3, §1
Binder B1 has a Ki of over 200 µM. With B16 the Ki was 5.2 µM. B2 showed a Ki of 14 µM. B17 gave a Ki of 5.1 µM. Work on B18 yielded a Ki of 3.9 µM. In the case of B5, the Ki is reported as 13 µM. B19 showed a Ki of 12 µM.

These binders were tested against T2, proprotein convertase PACE4 in the same assay as above.
Excerpt: as §3, §1
With B1 the Ki was over 200 µM. Work on B16 yielded a Ki of 0.24 µM. For B2, the Ki was 0.98 µM. For B17, the Ki was 0.15 µM. For B18, the Ki was 0.52 µM. For B5, the Ki was 0.58 µM. B19 was tested, and the Ki was 0.11 µM.
